Measured values as given in patent US20260158160A1 (MACFARLANE BURNET INSTITUTE FOR MEDICAL RESEARCH AND PUBLIC …, published 2026).
Like-named read-outs stand apart in the source and are kept apart here.

How the values were obtained:
[1] = biological target: human death receptor 5 (DR5) on cells (human, UniProt O14763 56-440); experiment: cell-based or functional assay
[2] = biological target: T1, FcγRIIIa V158 on NF-κB-RE nanoluciferase reporter cells (UniProt P08637 17-254); experiment: cell-based or functional assay
T1 sequence (P08637 17-254 F176V limits assumed): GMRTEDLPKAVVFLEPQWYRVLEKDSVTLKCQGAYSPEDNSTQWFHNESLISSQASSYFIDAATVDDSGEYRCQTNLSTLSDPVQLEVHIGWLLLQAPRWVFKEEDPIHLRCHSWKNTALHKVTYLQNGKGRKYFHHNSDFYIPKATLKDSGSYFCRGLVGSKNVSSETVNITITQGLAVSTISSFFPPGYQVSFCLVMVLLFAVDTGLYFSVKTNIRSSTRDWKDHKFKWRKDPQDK

[3] = biological target: T1, FcγRIIIa V158 on NF-κB-RE …; experiment: cell-based or functional assay; remark: listed apart in the source
[4] = biological target: T2, dimeric rsFcγRIIa (H131 allelic form) (UniProt P12318 34-217); experiment: flow cytometry: Ramos-S cells opsonised with the ACE2-Fc protein, biotinylated dimeric rsFcγRIIa probe, streptavidin-APC
T2 construct: also called dimeric recombinant soluble FcγRIIa
T2 sequence: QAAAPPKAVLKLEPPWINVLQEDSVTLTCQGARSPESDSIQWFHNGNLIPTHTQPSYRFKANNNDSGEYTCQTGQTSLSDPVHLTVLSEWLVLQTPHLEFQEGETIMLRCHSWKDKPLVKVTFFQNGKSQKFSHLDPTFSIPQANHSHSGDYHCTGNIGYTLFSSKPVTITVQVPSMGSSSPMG

[5] = biological target: T3, SARS-CoV-2 spike protein expressed on Ramos-S cells (SARS-CoV-2, UniProt P0DTC2 14-1273); experiment: flow cytometry on Ramos-S cells
T3 construct: whole, on cells; also called S protein; Ramos cells expressing transfected spike protein

B1: TDR5-A2WT (antibody)
heavy: QVQLVQSGAEVKKPGASVKVSCKASGFNIKDTHMHWVRQAPGQRLEWIGRIDPANGNTEYDQKFQGRVTITVDTSASTAYMELSSLRSEDTAVYYCARWGTNVYFAYWGQGTLVTVSSASPTSPKVFPLSLDSTPQDGNVVVACLVQGFFPQEPLSVTWSESGQNVTARNFPPSQDASGDLYTTSSQLTLPATQCPDGKSVTCHVKHYTNPSQDVTVPCPVPPPPPCCHPRLSLHRPALEDLLLGSEANLTCTLTGLRDASGATFTWTPSSGKSAVQGPPERDLCGCYSVSSVLPGCAQPWNHGETFTCTAAHPELKTPLTANITKSGNTFRPEVHLLPPPSEELALNELVTLTCLARGFSPKDVLVRWLQGSQELPREKYLTWASRQEPSQGTTTFAVTSILRVAAEDWKKGDTFSCMVGHEALPLAFTQKTIDRLAG
light: DIQLTQSPSSLSASVGDRVTITCSASSSVSYMYWYQQKPGKAPKPWIYRTSNLASGVPSRFSGSGSGTDFTLTISSLQPEDFATYYCQQYHSYPPTFGGGTKVEIKRTVAAPSVFIFPPSDEQLKSGTASVVCLLNNFYPREAKVQWKVDNALQSGNSQESVTEQDSKDSTYSLSSTLTLSKADYEKHKVYACEVTHQGLSSPVTKSFNRGEC
- death of Colo205 cells, EC50 as dilution of culture supernatant [1]: ~0.167 dilution

B2: TDR5-A2HF (antibody)
heavy: QVQLVQSGAEVKKPGASVKVSCKASGFNIKDTHMHWVRQAPGQRLEWIGRIDPANGNTEYDQKFQGRVTITVDTSASTAYMELSSLRSEDTAVYYCARWGTNVYFAYWGQGTLVTVSSASPTSPKVFPLSLDSTPQDGNVVVACLVQGFFPQEPLSVTWSESGQNVTARNFPPSQDASGDLYTTSSQLTLPATQCPDGKSVTCHVKHYTNPSQDVTVPCPVPPPPPCCHPRLSLHRPALEDLLLGSEANLTCTLTGLRDASGATFTWTPSSGKSAVQGPPERDLCGCYSVSSVLPGCAQPWNHGETFTCTAAHPELKTPLTANITKSGNTFRPEVHLLPPPSEELALNELVTLTCLARGFSPKDVLVRWLQGSQELPREKYLTWASRQEPSQGTTTFAVTSILRVAAEDWKKGDTFSCMVGFEALPLAFTQKTIDRLAG
light: DIQLTQSPSSLSASVGDRVTITCSASSSVSYMYWYQQKPGKAPKPWIYRTSNLASGVPSRFSGSGSGTDFTLTISSLQPEDFATYYCQQYHSYPPTFGGGTKVEIKRTVAAPSVFIFPPSDEQLKSGTASVVCLLNNFYPREAKVQWKVDNALQSGNSQESVTEQDSKDSTYSLSSTLTLSKADYEKHKVYACEVTHQGLSSPVTKSFNRGEC
- death of Colo205 cells, EC50 as dilution of culture supernatant [1]: > 0.00195 dilution

B3: rituximab-WT (antibody, human IgG1, kappa)
heavy: not shown
light: QIVLSQSPAILSASPGEKVTMTCRASSSVSYIHWFQQKPGSSPKPWIYATSNLASGVPVRFSGSGSGTSYSLTISRVEAEDAATYYCQQWTSNPPTFGGGTKVEIKRTVAAPSVFIFPPSDEQLKSGTASVVCLLNNFYPREAKVQWKVDNALQSGNSQESVTEQDSKDSTYSLSSTLTLSKADYEKHKVYACEVTHQGLSSPVTKSFNRGEC
- EC50 (read off the curve), FcγRIIIa reporter activation [2]: ~40 pM
- EC50 (read off the curve), FcγRIIIa reporter activation [3]: ~30 pM

B4: EflACE2-Fc-H429Y (Fc fusion)
chain: ETGSTIEEQAKYFLDKFNHEAEDLFYQSSLASWNYNTNITEENVQNMNNAGDKWSAFLKEQSTTAQMYPLQEIQNLTVKLQLQALQQNGSSVLSEDKSKRLNTILNTMSTIYSTGKVCNPDNPQECLLLEPGLNEIMANSLDYNERLWAWESWRSEVGKQLRPLYEEYVVLKNEMARANHYEDYGDYWRGDYEVNGVDGYDYSRGQLIEDVEHTFEEIKPLYEHLHAYVRAKLMNAYPSYISPIGCLPAHLLGDMWGRFWTNLYSLTVPFGQKPNIDVTDAMVDQAWDAQRIFKEAEKFFVSVGLPNMTQGFWEYSMLTDPGNVQKAVCHPTAWDLGKGDFRILMCTKVTMDDFLTAHHEMGHIQYDMAYAAQPFLLRNGANEGFHEAVGEIMSLSAATPKHLKSIGLLSPDFQEDNETEINFLLKQALTIVGTLPFTYMLEKWRWMVFKGEIPKDQWMKKWWEMKREIVGVVEPVPHDETYCDPASLFHVSNDYSFIRYYTRTLYQFQFQEALCQAAKHEGPLHKCDISNSTEAGQKLFNMLRLGKSEPWTLALENVVGAKNMNVRPLLNYFEPLFTWLKDQNKNSFVGWSTDWSPYADQSIKVRISLKSALGDRAYEWNDNEMYLFRSSVAYAMRQYFLKVKNQMILFGEEDVRVANLKPRISFNFFVTAPKNVSDIIPRTEVEKAIRMSRSRINDAFRLNDNSLEFLGIQPTLGPPNQPPVSGGGGSTHTCPPCPAPELLGGPSVFLFPPKPKDTLMISRTPEVTCVVVDVSHEDPEVKFNWYVDGVEVHNAKTKPREEQYNSTYRVVSVLTVLHQDWLNGKEYKCKVSNKALPAPIEKTISKAKGQPREPQVYTLPPSREEMTKNQVSLTCLVKGFYPSDIAVEWESNGQPENNYKTTPPVLDSDGSFFLYSKLTVDKSRWQQGNVFSCSVMYEALHNHYTQKSLSLSPGK
notes: also called EflACE2-Fc-H429Yoli; Yoli
- binding result [4]: no binding (tested: 5 µg/ml (opsonising protein))

B5: CC40.8-WT (antibody)
heavy: not shown
light: SYELTQPPSVSVSPGQTARITCSGDALPKRYAYWYQQKSGQAPILVIYEDKKRPSGIPERLSGSKSGTVATLTISGAQVEDEADYYCYSTDSSGNHAVFGGGTQLTVLGQPKAAPSVFIFPPSDEQLKSGTASVVCLLNNFYPREAKVQWKVDNALQSGNSQESVTEQDSKDSTYSLSSTLTLSKADYEKHKVYACEVTHQGLSSPVTKSFNRGEC
- binding result [5]: binds
